Results: paper PMC9889962
pKd: −log10 of the molar value.

Columns and labels:
Test in all cases: SPR
[1] = biological target: SARS-CoV-2 Omicron BA.2 spike protein trimer (SARS-CoV-2) (UniProt P0DTC2)
[2] = biological target: SARS-CoV-2 Omicron BA.5 spike protein trimer (SARS-CoV-2) (UniProt P0DTC2)
[3] = biological target: SARS-CoV-2 Omicron BA2.75 spike protein trimer (SARS-CoV-2) (UniProt P0DTC2)
[4] = biological target: SARS-CoV-2 Omicron BA4.6 spike protein trimer (SARS-CoV-2) (UniProt P0DTC2)
[5] = biological target: SARS-CoV-2 Omicron BQ.1.1 spike protein trimer (SARS-CoV-2) (UniProt P0DTC2)
[6] = biological target: SARS-CoV-2 Omicron XBB.1 spike protein trimer (SARS-CoV-2) (UniProt P0DTC2)

**Q.** With “LiVE-Longer YTE chimera (ACE-2 LVE/STR-YTE fusion protein) (from UniProt Q9BYF1 18-740) (Fc fusion)” as the substance, how does the pKd [1] read?
**A.** The pKd was 13.11.

**Q.** And the pKd [2]?
**A.** Its pKd is 11.27.

**Q.** And the pKd [3]?
**A.** The pKd was 12.88.

**Q.** What about the pKd [4] of the same substance?
**A.** The pKd was 9.07.

**Q.** And the pKd [5]?
**A.** The pKd was 11.74.

**Q.** And the pKd [6]?
**A.** The pKd was 9.67.
